Our source for the % inhibition values is publication PMC9633773, “Discovering cell-active BCL6 inhibitors: effectively combining biochemical HTS with multiple biophysical techniques, X-ray crystallography and cell-based assays” (Scientific Reports, 2022).

In the test the target is BCL6 BTB domain (BCL6 5-129, tag removed by HRV-3C protease) (human) (UniProt P41182). Put plainly: fluorescence polarisation; competition: 10 nM BCOR-AF633, 3 µM BCL6 BTB, unlabelled peptide varied; 20 mM Hepes/NaOH pH 8.0, 150 mM NaCl, 0.5 mM TCEP, 0.05% Tween 20, 1-2% DMSO; 2 h at room temperature. For orientation: Polarisation of emitted light reports the rotation of a fluorescent probe.

The % inhibition is how much of the control response was suppressed. A lower % inhibition goes with a weak effect.

Regarding WVIP tetrapeptide (Ac-WVIP-NH2), the % inhibition at 980 µM was 16%.
